Experimental data taken from patent publication US20230295635, “DNA APTAMERS FOR EOSINOPHIL PEROXIDASE DETECTION” (McMaster University, published 2023).

What was measured:
[1] = molecular target: T1, Eosinophil peroxidase (EPX) (UniProt P11678;P11678 P11678:140-250,P11678:251-715); assay: FP; 0.5x SB, room temperature; conditions: tags: Cedarlane #342-60-0.1; untagged commercial protein; label: 5'-FAM; 3' stem loop
[2] = molecular target: T1, Eosinophil peroxidase (EPX); assay: FP; PBS pH 7.4, room temperature; conditions: tags: Cedarlane #342-60-0.1, untagged commercial protein, label: 5'-FAM
[3] = molecular target: T1, Eosinophil peroxidase (EPX); assay: EMSA; 1x SB (50 mM Tris, 1 M NaCl, 5 mM MgCl2, 2 mM KCl, pH 9), poly(dI-dC); from loss of free aptamer band; conditions: tags: Cedarlane #342-60-0.1; untagged commercial protein; label: 5'-FAM; 3' stem loop
[4] = molecular target: T1, Eosinophil peroxidase (EPX); assay: EMSA; value only in figure; weaker than EAP1-05; 1x SB pH 9; conditions: tags: Cedarlane #342-60-0.1; untagged commercial protein; label: fluorescent (FAM)
[5] = molecular target: T1, Eosinophil peroxidase (EPX); assay: EMSA; 3 nM aptamer, 5 nM EPX; small positive impact of middle deletion; conditions: tags: Cedarlane #342-60-0.1; untagged commercial protein; label: 5'-FAM
Method: Next, EAP1-05 was subjected to truncation and deletion experiments to shorten the aptamer and improve its binding ability. The aptamer was truncated by removing various DNA segments (FIG. 2A), and the fraction of aptamer bound to EPX was assessed by EMSA using 3 nM of aptamer and a single EPX concentration of 5 nM and calculating the decrease in free aptamer fluorescence in EMSA gels.

[6] = molecular target: Bovine serum albumin (BSA) (Bos taurus, UniProt P02769 P02769:25-607); assay: pulldown; HB; no TMB signal (BSA has no peroxidase activity); conditions: label: 5'-biotin
Sequence of Bovine serum albumin (BSA) (P02769 25-607, one chain of several): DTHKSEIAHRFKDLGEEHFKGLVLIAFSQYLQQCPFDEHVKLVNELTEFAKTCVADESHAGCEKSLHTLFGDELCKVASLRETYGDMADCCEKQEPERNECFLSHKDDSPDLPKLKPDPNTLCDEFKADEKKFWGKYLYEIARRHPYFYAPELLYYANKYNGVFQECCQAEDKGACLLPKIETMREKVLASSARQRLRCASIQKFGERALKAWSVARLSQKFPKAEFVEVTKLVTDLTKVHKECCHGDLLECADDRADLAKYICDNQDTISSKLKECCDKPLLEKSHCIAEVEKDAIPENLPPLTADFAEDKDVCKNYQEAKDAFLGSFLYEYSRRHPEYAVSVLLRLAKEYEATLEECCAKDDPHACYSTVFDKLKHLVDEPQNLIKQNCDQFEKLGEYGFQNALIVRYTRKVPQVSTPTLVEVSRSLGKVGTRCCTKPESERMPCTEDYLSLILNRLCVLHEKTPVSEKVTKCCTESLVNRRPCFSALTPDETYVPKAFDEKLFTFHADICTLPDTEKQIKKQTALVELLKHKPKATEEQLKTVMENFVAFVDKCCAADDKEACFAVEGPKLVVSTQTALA
Method: (§1) EPX pulldown assay: Biotinylated EAP1-05T3 was immobilized on streptavidin-coated agarose beads as follows: 200 µL of streptavidin-coated agarose slurry was transferred into a 1.5 mL Eppendorf tube and washed with 500 µL of 1x HB (50 mM HEPES, 300 mM NaCl, 15 mM MgCl2, 0.01% Tween20, pH 7.5). 1 nmole of biotinylated EAP1-05T3 was added to this slurry and rotated gently for 1 h to bind the aptamers with the beads. The beads were washed 5x with 500 µL of 1x HB each time and finally suspended in 1000 µL of 1x HB and stored at 4° C. until use. 50 µL of this bead slurry was used for each pull-down experiment.
Specificity test: 50 µL of aptamer-conjugated beads from above were aliquoted in each tube and labelled for each experiment: Buffer, EPX, MPO, LPO, TPO and BSA respectively. 1 µM stock of each of protein was made in 1x HB. Next, 1.0 µL of each protein was added to their respected tube and incubated at room temperature for 30 minutes with occasional pipetting for homogeneous binding. Only buffer was added in the control experiment tube that was labelled as buffer. Then the beads were sedimented by brief centrifugation using a benchtop centrifuge and washed 3× using 300 µL 1x HB. Next, the beads were resuspended in 25 µL HB. […] This yellow solution was immediately transferred into 96 well plate and the OD was measured at 450 nm using Tecan plate reader. […]

[7] = molecular target: Myeloperoxidase (MPO) (UniProt P05164;P05164 P05164:165-273,P05164:279-745); assay: pulldown; HB, 1 uM protein; no TMB signal; conditions: tags: Cedarlane #426-10-0.1; untagged commercial protein; chain copies: 2; label: 5'-biotin
Sequence of Myeloperoxidase (MPO) (P05164 165-273, chain 1 of 2): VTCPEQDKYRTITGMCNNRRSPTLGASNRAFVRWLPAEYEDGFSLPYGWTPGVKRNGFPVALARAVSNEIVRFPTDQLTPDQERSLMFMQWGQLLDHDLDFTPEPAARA
Sequence of Myeloperoxidase (MPO) (P05164 279-745, chain 2 of 2): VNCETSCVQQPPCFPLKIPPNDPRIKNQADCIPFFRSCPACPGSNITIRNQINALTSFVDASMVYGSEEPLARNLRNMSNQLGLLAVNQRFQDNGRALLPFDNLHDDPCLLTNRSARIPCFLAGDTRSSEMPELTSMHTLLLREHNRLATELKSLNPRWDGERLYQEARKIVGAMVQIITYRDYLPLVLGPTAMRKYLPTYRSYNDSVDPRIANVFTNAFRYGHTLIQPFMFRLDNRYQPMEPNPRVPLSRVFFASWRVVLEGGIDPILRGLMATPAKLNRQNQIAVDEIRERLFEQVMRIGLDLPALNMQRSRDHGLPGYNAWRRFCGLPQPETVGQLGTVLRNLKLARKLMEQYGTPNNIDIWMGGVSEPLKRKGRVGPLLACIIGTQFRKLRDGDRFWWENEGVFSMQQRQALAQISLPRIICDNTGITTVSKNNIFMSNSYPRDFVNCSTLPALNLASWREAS

[8] = molecular target: Lactoperoxidase (LPO) (UniProt P80025 P80025:101-712); assay: pulldown; HB, 1 uM protein; no TMB signal
[9] = molecular target: T1, Eosinophil peroxidase (EPX); assay: pulldown; HB (50 mM HEPES, 300 mM NaCl, 15 mM MgCl2, pH 7.5), TMB signal; LoD 1 nM in buffer, 1.25 nM in sputum; conditions: tags: Cedarlane #342-60-0.1; untagged commercial protein; label: 5'-biotin
Method: as §1
Sensitivity test in buffer: EPX stocks of different concentrations (10.0, 5.0, 2.5, 1.25, 0.625, 0.312, 0.156, 0.078, 0.039 and 0.019 µM) were made in 1x HB. Similar to specificity test, 50 µL of aptamer conjugated beads slurry was transferred in each fresh Eppendorf tube (3 tubes for each concentration for triplicate experiments). 1.0 µL of each protein was added to their respected tube and incubated at room temperature for 30 minutes with occasional pipetting for homogeneous binding. Only buffer was added in the control experiment tube that was labelled as buffer. […] This yellow solution was immediately transferred into 96 well plate and the OD was measured at 450 nm using a Tecan plate reader. […]

T1 sequence (P11678 140-250, chain 1 of 2): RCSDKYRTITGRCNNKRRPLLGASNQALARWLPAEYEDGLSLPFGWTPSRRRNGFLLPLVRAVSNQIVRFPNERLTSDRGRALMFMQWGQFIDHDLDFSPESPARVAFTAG
T1 sequence (P11678 251-715, chain 2 of 2): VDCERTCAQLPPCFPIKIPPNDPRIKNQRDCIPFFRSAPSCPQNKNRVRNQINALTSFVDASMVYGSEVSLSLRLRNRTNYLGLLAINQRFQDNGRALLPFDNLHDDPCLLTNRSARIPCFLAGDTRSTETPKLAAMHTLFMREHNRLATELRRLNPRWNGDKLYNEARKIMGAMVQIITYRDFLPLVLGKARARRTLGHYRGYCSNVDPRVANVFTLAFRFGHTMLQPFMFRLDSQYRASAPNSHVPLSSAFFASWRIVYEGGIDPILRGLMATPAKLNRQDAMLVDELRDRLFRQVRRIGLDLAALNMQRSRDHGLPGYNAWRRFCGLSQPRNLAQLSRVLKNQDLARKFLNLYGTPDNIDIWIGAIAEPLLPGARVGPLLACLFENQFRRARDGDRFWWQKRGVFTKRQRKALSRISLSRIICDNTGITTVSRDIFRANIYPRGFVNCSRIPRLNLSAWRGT

| Binder | binding result [4] | further results |
| --- | --- | --- |
| EAP1-05 (ssDNA) DNA: ATGCCATCCTACCAACCAGGGGGACAGTGCAAAGGGGTAGGGAGGGGGCTAGGGGGGAGCTCTGAACTGG | – | Kd [1]: 36.6 nM; Kd ([2]; 3' stem loop): 4.3 nM; Kd [3]: 9.2 nM |
| EAP2-10 (ssDNA) DNA: ATGCCATCCTACCAACAGGGAGGGGGCGGTTAGGGAATGGTGGTCCGGGCGGGGTAGAGCTCTGAACTGG | binds | – |
| ATGCCATCCTACCAATAGGGAGGGGGCTAGGGGGGAGCTCTGAACTCG (ssDNA) [EAP1-05T2] | – | binding result [5]: binds |
| EAP2-01 (ssDNA) DNA: ATGCCATCCTACCAACCGCGGGAGGAGACTGGTGTAGGGGGCATGGGATGGCCTGGGAGCTCTGAACTGG | binds | – |
| EAP1-15 (ssDNA) DNA: ATGCCATCCTACCAACCGGGGGAGCAAGGTGTAGGGGTAGGGGGCCATGCGAGGGGGAGCTCTGAACTGG | binds | – |
| EAP2-18 (ssDNA) DNA: ATGCCATCCTACCAACATGGGGATATCCGGCGGGGGCATCAGGGGGGAGTGCGGGTGAGCTCTGAACTGG | binds | – |
| EAP1-20 (ssDNA) DNA: ATGCCATCCTACCAACAGCAGCGGGCGGGGGCCAGTGGGGGATGTAGCCGGGGGTGGAGCTCTGAACTGG | binds | – |
| EAP1-05T3BT (ssDNA) DNA: TTTTTTTTTTATGCCATCCTACCAACCAGGGGGACAGTGCAAAGGGAGCTCTGAACTCG | – | binding result [6]: no binding; binding result [7]: no binding; binding result [8]: no binding; binding result [9]: binds |
| EAP1-08 (ssDNA) DNA: ATGCCATCCTACCAACCAGTTGCCGGTGGGGTGACCCGGTGGGGGAGGGTGTGGGGGAGCTCTGAACTGG | binds | – |
| EAP1-01 (ssDNA) DNA: ATGCCATCCTACCAACCACGGGGATCGGGTGGGGGCTAGGCGGCGTGTGCACGGGGGAGCTCTGAACTGG | binds | – |
| ATGCCATCCTACCAACCAGGGGGACAGTGCAAAGGGAGCTCTGAACTCG (ssDNA) [EAP1-05T3] | – | Kd [2]: 4.8 nM |
| EAP2-09 (ssDNA) DNA: ATGCCATCCTACCAACACGACCGGTGTAGAGGGGGGTATACGGAATGGGGGTTGTGGAGCTCTGAACTGG | binds | – |
| EAP2-40 (ssDNA) DNA: ATGCCATCCTACCAACCAGGGGGCGCGGGAGGGGGCCTGACGTCGAGGGGGTTGGGGAGCTCTGAACTGG | binds | – |
